# B1: WEE1 (parent)
# chain: FISRTSIPNAASEEGDEDDWASNK
# Variants of: B1
# Assay: protein stability index of a GFP-peptide fusion (GPS, HEK-293T) (PSI 1-6); higher = more stable
# Settings: c terminus: a fixed tail appended
# 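Note: lentivirally expressed fusions sorted by FACS into six bins by GFP to DsRed ratio, PSI derived from sequencing read proportions per bin multiplied by bin number.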
row,Variant,protein stability index
1,SISRTSIPNAASEEGDEDDWASNK [F1S],5.84
2,QISRTSIPNAASEEGDEDDWASNK [F1Q],5.63
3,RISRTSIPNAASEEGDEDDWASNK [F1R],4.92
4,FISRTSICNAASEEGDEDDWASNK [P8C],3.18
5,FISRTSINNAASEEGDEDDWASNK [P8N],4.31
6,FISRTSIGNAASEEGDEDDWASNK [P8G],2.17
7,FISRTSIHNAASEEGDEDDWASNK [P8H],3.41
8,FISRTSIQNAASEEGDEDDWASNK [P8Q],3.96
9,FISRTSIRNAASEEGDEDDWASNK [P8R],3.69
10,FISRTSIENAASEEGDEDDWASNK [P8E],3.82
11,FISRTSIWNAASEEGDEDDWASNK [P8W],2.01
12,FISRTSIMNAASEEGDEDDWASNK [P8M],3.51
13,FISRTSIPNAAMEEGDEDDWASNK [S12M],3.68
14,FISRTSIPNAAKEEGDEDDWASNK [S12K],3.75
15,FISRTSIPNAAPEEGDEDDWASNK [S12P],4.18
16,FISRTSIPNAAGEEGDEDDWASNK [S12G],4.13
17,FISRTSIPNRASEEGDEDDWASNK [A10R],3.97
18,FISRTSIPNKASEEGDEDDWASNK [A10K],3.65
19,FISRTSIPNEASEEGDEDDWASNK [A10E],4.35
20,FNSRTSIPNAASEEGDEDDWASNK [I2N],5.67
21,FPSRTSIPNAASEEGDEDDWASNK [I2P],5.21
22,FASRTSIPNAASEEGDEDDWASNK [I2A],4.66
23,FQSRTSIPNAASEEGDEDDWASNK [I2Q],4.58
24,FSSRTSIPNAASEEGDEDDWASNK [I2S],5.02

row,Variant,protein stability index
1,FMSRTSIPNAASEEGDEDDWASNK [I2M],4.84
2,FISRTSIPNAASEEGDEDGWASNK [D19G],3.82
3,FISRTSIPNAASEEGDEDYWASNK [D19Y],3.27
4,FISRTSIPNAASEEGDEDPWASNK [D19P],3.37
5,FISRTSIPNAASEEGDEDMWASNK [D19M],3.06
6,FISRTSIPNAASEEGDEDCWASNK [D19C],3.34
7,FISLTSIPNAASEEGDEDDWASNK [R4L],4.05
8,FISRTMIPNAASEEGDEDDWASNK [S6M],3.15
9,FISRTCIPNAASEEGDEDDWASNK [S6C],3.95
10,FISRTAIPNAASEEGDEDDWASNK [S6A],3.98
11,FISRTVIPNAASEEGDEDDWASNK [S6V],3.69
12,FISRTIIPNAASEEGDEDDWASNK [S6I],3.61
13,FISRTEIPNAASEEGDEDDWASNK [S6E],4.86
14,FISRTDIPNAASEEGDEDDWASNK [S6D],4.39
15,FISRTSEPNAASEEGDEDDWASNK [I7E],4.54
16,FISRTSNPNAASEEGDEDDWASNK [I7N],4.35
17,FISRTSFPNAASEEGDEDDWASNK [I7F],2.79
18,FISRTSVPNAASEEGDEDDWASNK [I7V],3.78
19,FISRTSHPNAASEEGDEDDWASNK [I7H],3.79
20,FISRTSIPNAASEEGDEDDWAMNK [S22M],3.88
21,FISRTSIPNAASEEGDEDDWACNK [S22C],3.87
22,FISRTSIPNAASEEGDEDDWAKNK [S22K],4.38
23,FISRTSIPNAASEEGDEDDWAENK [S22E],4.18
24,FISRTSIPNAASEEGDEDDWALNK [S22L],3.52

row,Variant,protein stability index
1,FISRTSIPNAASEEGDEDDWASGK [N23G],4.33
2,FISRTSIPNAASEEGDEDDWASPK [N23P],3.67
3,FISRTSIPNAASEEGDEDDWASDK [N23D],3.92
4,FISRTSIPNAASEEGDEDDWASAK [N23A],3.94
5,FISRTSIPNAASEEGDEDDWASLK [N23L],3.45
6,FISRTSIPNAASEEGDEDDWASHK [N23H],3.76
7,FISRTSIPNAASEEGDQDDWASNK [E17Q],3.79
8,FISRTSIPNAASEEGDTDDWASNK [E17T],3.64
9,FISRTSIPNAASEEGDMDDWASNK [E17M],3.67
10,FISRTSIPNAASEEGDKDDWASNK [E17K],3.73
11,FISRTSIPNAPSEEGDEDDWASNK [A11P],3.95
12,FISRTSIPNANSEEGDEDDWASNK [A11N],3.79
13,FISRTSIPNAKSEEGDEDDWASNK [A11K],3.69
14,FISRTSIPNAYSEEGDEDDWASNK [A11Y],3.63
15,FISRTSIPNAASDEGDEDDWASNK [E13D],3.68
16,FISRTSIPNAASREGDEDDWASNK [E13R],4.15
17,FIERTSIPNAASEEGDEDDWASNK [S3E],4.78
18,FIVRTSIPNAASEEGDEDDWASNK [S3V],3.6
19,FIDRTSIPNAASEEGDEDDWASNK [S3D],4.67
20,FISRTSIPNAASEEGEEDDWASNK [D16E],3.94
21,FISRTSIPNAASEEIDEDDWASNK [G15I],4.29
22,FISRTSIPNAASEENDEDDWASNK [G15N],3.78
23,FISRTSIPNAASEEKDEDDWASNK [G15K],4.18
24,FISRTSIPNAASEECDEDDWASNK [G15C],4.51

row,Variant,protein stability index
1,FISRTSIPNAASEEFDEDDWASNK [G15F],3.83
2,FISRTSIPNAASEEEDEDDWASNK [G15E],4.62
3,FISRTSIPRAASEEGDEDDWASNK [N9R],3.35
4,FISRTSIPHAASEEGDEDDWASNK [N9H],3.93
5,FISRTSIPNAASEYGDEDDWASNK [E14Y],4.02
6,FISRTSIPNAASEKGDEDDWASNK [E14K],4.03
7,FISRVSIPNAASEEGDEDDWASNK [T5V],3.86
8,FISRISIPNAASEEGDEDDWASNK [T5I],3.5
9,FISRHSIPNAASEEGDEDDWASNK [T5H],3.21
10,FISRKSIPNAASEEGDEDDWASNK [T5K],4.01
11,FISRLSIPNAASEEGDEDDWASNK [T5L],3.6
12,FISRTSIPNAASEEGDEQDWASNK [D18Q],3.56
13,FISRTSIPNAASEEGDEDDGASNK [W20G],4.52
14,FISRTSIPNAASEEGDEDDMASNK [W20M],4.44
15,FISRTSIPNAASEEGDEDDNASNK [W20N],4.51
16,FISRTSIPNAASEEGDEDDWISNK [A21I],3.83
17,FISRTSIPNAASEEGDEDDWLSNK [A21L],3.29
18,FISRTSIPNAASEEGDEDDWVSNK [A21V],3.81
19,FISRTSIPNAASEEGDEDDWPSNK [A21P],3.7
20,FISRTSIPNAASEEGDEDDWQSNK [A21Q],3.62
21,FISRTSIPNAASEEGDEDDWASNI [K24I],4.12
22,FISRTSIPNAASEEGDEDDWASNL [K24L],4.04

# Reference: the supplement of paper PMC10567573
